Test results taken from US20110124842A1 (priority 2003, published 2011).
Where two headings read alike, the source gives them in different places. Bridges are numbered along the chain shown (N, C = ends). Where no end group is shown, it is not given here. [ ]: non-standard residue; d: D form. Orn = NCCC[C@H](N)C(=O)O; Aib = CC(C)(N)C(=O)O

Tests used:
[1] = molecular target: recombinant gp41 (Example 2 ELISA) (HIV-1) (UniProt P04578); assay: ELISA, Fab titrated on immobilized gp41
[2] = Circular dichroism spectroscopy of free peptides in solution (helicity); type: physicochemical; settings: FIG. 48
Procedure: To determine whether the imposed constraints increased the helicity of the peptides, each one was analyzed in solution using circular dichroism (CD) spectroscopy (FIG. 48). An Aviv spectropolarimeter Model 203-02 was used, with cells of 0.1 cm in length, a wavelength step of 0.5 nm and a bandwidth of 1.0 nm. One to three scans were reported. The exact peptide concentrations were determined by UV measurements at 280 nm on a Gison UV detector, model 116.

IgG 4E10 = assay: Competitive ELISA (IC50): peptide competes with biotinylated 4E10-epitope peptide for IgG 4E10; type: binding, human
Procedure: IC50, were determined by competitive ELISA using a constant concentration of biotinylated peptide and IgG with a variable concentration of gp41 peptides. Microwells were coated overnight at 4° C. with 50 μl PBS containing neutravidin (Pierce; 4 μg/ml). […] A mixture of a biotinylated 4E10-epitope peptide, […](biotin)-NH2 (SEQ ID NO: 88) (20 nM), IgG 4E10 (0.2 nM), and the competing peptide analog (3-fold dilution series starting at 10 μM) in 0.4% non-fat dry milk, 0.02% Tween and PBS was incubated in a separate 96-well plate at 37° C. for 2 hours. After washing the blocked plate, the mixture of 4E10, biotinylated peptide and competing peptide was added to the wells. After 20 minutes at room temperature, the Wells were washed five times, and a 1:500 dilution of goat anti-human IgG F(ab′)2 HRP conjugate (Pierce) was added. Following incubation at RT for 40 minutes, the wells were washed five times, and developed by adding 50 μl of TMB solution (Pierce) according to the manufacturer's instructions. After ˜20 minutes, wells containing TMB solution were stopped by adding 50 μl of H2SO4 (2M) and the O.D. at 450 nm was read on a microplate reader (Molecular Devices). The concentration of competitor peptide corresponding to a half-maximal signal (IC50) was determined by interpolation of the resulting binding curve. Each peptide competitor was tested in duplicate in at least two separate experiments.
IC50s were determined by competitive ELISA using a constant concentration of biotinylated peptide and IgG with a variable concentration of gp41 peptides. Microwells were coated overnight at 4° C. with 50 μl PBS containing neutravidin (Pierce; 4 μg/ml). […] Meanwhile, a mixture of a biotinylated 4E10-peptide epitope, […](biotin)-NH2 (SEQ ID NO: 88), (20 nM), IgG 4E10 (0.2 nM), and the competing peptide analogue (3-fold dilution series starting at 10 μM) in 0.4% NFDM, 0.02% Tween and PBS was incubated in a separate 96-well plate at 37° C. for 2 h. After washing the blocked plate, the mixture of 4E10, biotinylated peptide and competing peptide was added to the wells. After 20 min at room temperature, the wells were washed five times, and a 1:500 dilution of goat anti-human IgG F(ab′)2 HRP conjugate (Pierce) was added. Following incubation at RT for 40 min, the wells were washed five times, and developed by adding 50 μl of H2SO4 (2 M), and the O.D. at 450 nm was read on a microplate reader (Molecular Devices). The concentration of competitor peptide corresponding to a half-maximal signal (IC50) was determined by interpolation of the resulting binding curve. Each peptide competitor was tested in duplicate in at least two separate experiments.

peptide 94-1, …-NH2 [3] = assay: surface plasmon resonance and ELISA (Table 7)
[4] = molecular target: peptide 104-2, NWFc(CITO)WLWKKKK-NH2; assay: surface plasmon resonance and ELISA (Table 7)
[5] = molecular target: recombinant gp41 (Example 2 ELISA) (HIV-1) (UniProt P04578); assay: direct ELISA, antigen coated on wells, 4E10 at 5 µg/ml
[6] = molecular target: peptide 33-1, NWFDITN-Aib-LWRR-NH2; assay: surface plasmon resonance and ELISA
peptide 94-1, …-NH2 [7] = assay: surface plasmon resonance and ELISA
[8] = molecular target: peptide 104-2, NWFc(CITO)WLWKKKK-NH2; assay: surface plasmon resonance and ELISA
[9] = molecular target: recombinant IgG1(kappa) 4E10; assay: competitive ELISA: gp41 against biotinylated …(biotin)-NH2 for IgG 4E10
Sequence of recombinant IgG1(kappa) 4E10 (heavy, as listed by the source): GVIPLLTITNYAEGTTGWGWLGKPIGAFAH

[10] = molecular target: recombinant IgG1(kappa) 4E10; assay: competitive ELISA; converted by the filing on the assumption of 25 kDa and a monomer
[11] = molecular target: recombinant IgG1(kappa) 4E10; assay: competitive ELISA: peptide against biotinylated …(biotin)-NH2 (20 nM) for IgG 4E10 (0.2 nM)
Fab 4E10 [12] = assay: SPR (Biacore 2000), Fab 4E10 on CM5 chip, peptide in flow
Sequence of Fab 4E10 (heavy, as listed by the source): as above

[13] = molecular target: recombinant IgG1(kappa) 4E10; assay: competitive ELISA: peptide against biotinylated …(biotin)-NH2 for IgG 4E10
Fab 4E10 [14] = assay: SPR (Biacore 2000), Fab 4E10 on CM5 chip, peptide in flow; remark: listed apart in the source
[15] = molecular target: recombinant IgG1(kappa) 4E10; assay: competitive ELISA
[16] = molecular target: recombinant IgG1(kappa) 4E10; assay: competitive ELISA, reference peptide of the alanine scan
[17] = molecular target: recombinant IgG1(kappa) 4E10; assay: cell-based or functional assay
[18] = molecular target: recombinant IgG1(kappa) 4E10; assay: competitive ELISA for IgG 4E10

Fab 2F5
EC50 (read off the curve) [1]: 0.03 µg/mL

NWFDITNWLWYIKBKBKK-NH2 [Peptide 119]
helicity in solution by CD [2]: more helical 94-1 | IC50 (4E10 binding, competitive ELISA) (IgG 4E10): the same IC50 | IC50 (IgG 4E10; Table 6, constrained analogs, 4E10 binding, read-out: IC50): 10 nM

recombinant IgG1(kappa) 4E10 (antibody)
fold higher affinity than for peptide 33-1 (peptide 94-1, …-NH2 [3]): 17 fold | fold higher affinity than for peptide 33-1 [4]: 17 fold | fold higher affinity than for the synthetic peptide (KGND) [5]: 4 fold | fold higher affinity than for the original peptide KGND [6]: 1000 fold | fold higher affinity than for the original peptide KGND (peptide 94-1, …-NH2 [7]): 1000 fold | fold higher affinity than for the original peptide KGND [8]: 1000 fold

recombinant gp41 (residues 541-682 of HxB2; Viral Therapeutics, Inc.) (from UniProt P04578 541-682)
IC50 [9]: 0.25 µg/mL | IC50 [10]: 10 nM

NWFDITNWLWKKKK-NH2 [peptide 84-1, …-NH2]
IC50 [11]: 40 nM | Kd (Fab 4E10 [12]): 100 nM

NWFCIT[Orn]WLWKKKK-NH2 (not fully specified; printed as NWFCITOWLWKKKK-NH2) [peptide 104-1, NWFCITOWLWKKKK-NH2 (acyclic control)]
IC50 [13]: 40 nM

B1: peptide 104-2, NWFc(CITO)WLWKKKK-NH2 (peptide)
peptide: NWFCIT[Orn]WLWKKKK-NH2
modifications: bridge 4-7; not fully specified (bridges); printed as peptide 104-2, NWFc(CITO)WLWKKKK-NH2
IC50 [13]: 10 nM | Kd (Fab 4E10 [14]): 17 nM | koff (Fab 4E10 [14]): 0.0034 s⁻¹ | kon (Fab 4E10 [14]): 202000 M⁻¹ s⁻¹ | fold increase of affinity over its control peptide 104-1 [15]: 4 fold

SLWNWFDITNWLWYIKKKK-NH2 [peptide …-NH2]
IC50 [16]: 10 nM

WNWFDITNWLWKKKK-NH2 [peptide 84-2, …-NH2]
IC50 [13]: 120 nM

CWFXITNWLWKKKK (cyclic thioether between Cys 1 and ornithine (O) 4; C-terminal amide) [peptide 74-2, c(CWFO)…-NH2]
IC50 [13]: 230 nM | Kd (Fab 4E10 [14]): 276 nM

B2: peptide 33-1, NWFDITN-Aib-LWRR-NH2 (peptide)
peptide: NWFDITN[Aib]LWRR-NH2
modifications: N-terminus assumed
SMILES: CC[C@H](C)[C@H](NC(=O)[C@H](CC(=O)O)NC(=O)[C@H](Cc1ccccc1)NC(=O)[C@H](Cc1c[nH]c2ccccc12)NC(=O)[C@@H](N)CC(N)=O)C(=O)N[C@H](C(=O)N[C@@H](CC(N)=O)C(=O)NC(C)(C)C(=O)N[C@@H](CC(C)C)C(=O)N[C@@H](Cc1c[nH]c2ccccc12)C(=O)N[C@@H](CCCNC(=N)N)C(=O)N[C@@H](CCCNC(=N)N)C(N)=O)[C@@H](C)O
IC50 [13]: 100 to 400 nM | Kd (Fab 4E10 [14]): 302 nM | koff (Fab 4E10 [14]): 0.13 s⁻¹ | kon (Fab 4E10 [14]): 431000 M⁻¹ s⁻¹ | fold increase of binding affinity over its control peptide 44-1 [15]: 3 fold

NWFDITNWLWRR-NH2 [peptide 44-1, …-NH2]
IC50 [13]: 600 nM

NWFDITNWLWYIKKKK-NH2 [peptide 94-1, …-NH2]
IC50 [13]: 10 nM | inhibition of 4E10 neutralization of replication competent HIV-1 SF162 and JR-CSF (TZM-bl cells, luciferase) [17]: 30 µg/mL | Kd (Fab 4E10 [12]): 18 nM | fold improvement of IC50 compared to KGND [18]: > 1000 fold | fold improvement of IC50 over the starting peptide (84-1) [18]: 4 fold | Kd (Fab 4E10 [14]): 20 nM | koff (Fab 4E10 [14]): 0.0138 s⁻¹ | kon (Fab 4E10 [14]): 691000 M⁻¹ s⁻¹
